T1: EsCas13d, nuclease-dead (Eubacterium siraeum, UniProt B0MS50, R295A;H300A;R849A;H854A)
T1 sequence: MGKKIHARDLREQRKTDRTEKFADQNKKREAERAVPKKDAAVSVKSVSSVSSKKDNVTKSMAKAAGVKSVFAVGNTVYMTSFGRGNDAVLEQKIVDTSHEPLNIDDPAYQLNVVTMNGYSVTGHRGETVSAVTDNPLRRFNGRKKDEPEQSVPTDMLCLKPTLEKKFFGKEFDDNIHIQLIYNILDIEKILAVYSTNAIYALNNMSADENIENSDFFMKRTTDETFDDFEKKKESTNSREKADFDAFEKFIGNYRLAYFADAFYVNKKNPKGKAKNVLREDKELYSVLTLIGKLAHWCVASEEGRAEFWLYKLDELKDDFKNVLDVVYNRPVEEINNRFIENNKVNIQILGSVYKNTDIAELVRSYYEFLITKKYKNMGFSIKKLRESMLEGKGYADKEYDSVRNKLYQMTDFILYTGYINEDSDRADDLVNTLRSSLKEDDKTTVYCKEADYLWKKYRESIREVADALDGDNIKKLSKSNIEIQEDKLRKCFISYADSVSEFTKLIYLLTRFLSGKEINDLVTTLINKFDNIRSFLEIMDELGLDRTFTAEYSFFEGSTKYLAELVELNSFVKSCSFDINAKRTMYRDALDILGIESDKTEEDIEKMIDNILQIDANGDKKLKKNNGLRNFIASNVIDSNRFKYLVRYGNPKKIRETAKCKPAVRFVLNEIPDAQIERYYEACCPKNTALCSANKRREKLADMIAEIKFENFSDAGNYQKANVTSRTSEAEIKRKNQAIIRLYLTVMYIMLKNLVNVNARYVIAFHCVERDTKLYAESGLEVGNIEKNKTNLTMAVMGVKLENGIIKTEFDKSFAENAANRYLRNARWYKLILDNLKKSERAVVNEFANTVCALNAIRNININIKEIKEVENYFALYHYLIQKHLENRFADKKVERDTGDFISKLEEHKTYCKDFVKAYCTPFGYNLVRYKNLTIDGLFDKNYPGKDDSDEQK

B1: target 1 C2G,G15C (mixed)
RNA 1: CACCCGUGCAAAAAUGCAGGGGUCUAAAACUGAGCGGAUAACCUCUCUAUGG
RNA 2: GGGAAUGGAUCCACAUCUACGAAUUCGUACCAUAGACAGGUUAUCCGCUGACCGAGAUCGGAAGAGCACACGU
B2: target 1 insU 3' of 22,insA 3' of 4 (mixed)
RNA 1: CACCCGUGCAAAAAUGCAGGGGUCUAAAACUGAGCGGAUAACCUCUCUAUGG
RNA 2: GGGAAUGGAUCCACAUCUACGAAUUCGUACUCAUAGAGAGGUUAUCCGCAUCACCGAGAUCGGAAGAGCACACGU
B3: target 1 A1U,A14G (mixed)
RNA 1: CACCCGUGCAAAAAUGCAGGGGUCUAAAACUGAGCGGAUAACCUCUCUAUGG
RNA 2: GGGAAUGGAUCCACAUCUACGAAUUCGUACCAUAGAGGGGUUAUCCGCUCUCCGAGAUCGGAAGAGCACACGU
B4: target 2 MT 5'PFS ACA 3'PFS UGA (mixed)
RNA 1: CACCCGUGCAAAAUUGCAGGGGUCUAAAACCUUCUCCAAAUUGUUUCAUCCU
RNA 2: GGGAAUGGAUCCACAUCUACGAAUUCACAAGGAUGAAACAAUUUGGAGAAGUGAAGAUCGGAAGAGCACACGU
B5: target 2 MT 5'PFS CAA 3'PFS AUC (mixed)
RNA 1: CACCCGUGCAAAAUUGCAGGGGUCUAAAACCUUCUCCAAAUUGUUUCAUCCU
RNA 2: GGGAAUGGAUCCACAUCUACGAAUUCCAAAGGAUGAAACAAUUUGGAGAAGAUCAGAUCGGAAGAGCACACGU
B6: target 2 MT 5'PFS CUC 3'PFS UCA (mixed)
RNA 1: CACCCGUGCAAAAUUGCAGGGGUCUAAAACCUUCUCCAAAUUGUUUCAUCCU
RNA 2: GGGAAUGGAUCCACAUCUACGAAUUCCUCAGGAUGAAACAAUUUGGAGAAGUCAAGAUCGGAAGAGCACACGU
B7: target 2 MT 5'PFS UCU 3'PFS UGA (mixed)
RNA 1: CACCCGUGCAAAAUUGCAGGGGUCUAAAACCUUCUCCAAAUUGUUUCAUCCU
RNA 2: GGGAAUGGAUCCACAUCUACGAAUUCUCUAGGAUGAAACAAUUUGGAGAAGUGAAGAUCGGAAGAGCACACGU
B8: target 2 MT 5'PFS GUA 3'PFS CAU (mixed)
RNA 1: CACCCGUGCAAAAUUGCAGGGGUCUAAAACCUUCUCCAAAUUGUUUCAUCCU
RNA 2: GGGAAUGGAUCCACAUCUACGAAUUCGUAAGGAUGAAACAAUUUGGAGAAGCAUAGAUCGGAAGAGCACACGU
B9: target 2 MT 5'PFS AGU 3'PFS CGU (mixed)
RNA 1: CACCCGUGCAAAAUUGCAGGGGUCUAAAACCUUCUCCAAAUUGUUUCAUCCU
RNA 2: GGGAAUGGAUCCACAUCUACGAAUUCAGUAGGAUGAAACAAUUUGGAGAAGCGUAGAUCGGAAGAGCACACGU
B10: target 2 MT 5'PFS AGA 3'PFS CGA (mixed)
RNA 1: CACCCGUGCAAAAUUGCAGGGGUCUAAAACCUUCUCCAAAUUGUUUCAUCCU
RNA 2: GGGAAUGGAUCCACAUCUACGAAUUCAGAAGGAUGAAACAAUUUGGAGAAGCGAAGAUCGGAAGAGCACACGU
B11: target 2 MT 5'PFS GUU 3'PFS AAA (mixed)
RNA 1: CACCCGUGCAAAAUUGCAGGGGUCUAAAACCUUCUCCAAAUUGUUUCAUCCU
RNA 2: GGGAAUGGAUCCACAUCUACGAAUUCGUUAGGAUGAAACAAUUUGGAGAAGAAAAGAUCGGAAGAGCACACGU
B12: target 2 MT 5'PFS AGC 3'PFS AAC (mixed)
RNA 1: CACCCGUGCAAAAUUGCAGGGGUCUAAAACCUUCUCCAAAUUGUUUCAUCCU
RNA 2: GGGAAUGGAUCCACAUCUACGAAUUCAGCAGGAUGAAACAAUUUGGAGAAGAACAGAUCGGAAGAGCACACGU
B13: target 2 MT 5'PFS CAA 3'PFS AUA (mixed)
RNA 1: CACCCGUGCAAAAUUGCAGGGGUCUAAAACCUUCUCCAAAUUGUUUCAUCCU
RNA 2: GGGAAUGGAUCCACAUCUACGAAUUCCAAAGGAUGAAACAAUUUGGAGAAGAUAAGAUCGGAAGAGCACACGU
B14: target 2 MT 5'PFS GUU 3'PFS AAC (mixed)
RNA 1: CACCCGUGCAAAAUUGCAGGGGUCUAAAACCUUCUCCAAAUUGUUUCAUCCU
RNA 2: GGGAAUGGAUCCACAUCUACGAAUUCGUUAGGAUGAAACAAUUUGGAGAAGAACAGAUCGGAAGAGCACACGU
B15: target 2 MT 5'PFS CGG 3'PFS UCA (mixed)
RNA 1: CACCCGUGCAAAAUUGCAGGGGUCUAAAACCUUCUCCAAAUUGUUUCAUCCU
RNA 2: GGGAAUGGAUCCACAUCUACGAAUUCCGGAGGAUGAAACAAUUUGGAGAAGUCAAGAUCGGAAGAGCACACGU
B16: target 2 MT 5'PFS CUC 3'PFS UCU (mixed)
RNA 1: CACCCGUGCAAAAUUGCAGGGGUCUAAAACCUUCUCCAAAUUGUUUCAUCCU
RNA 2: GGGAAUGGAUCCACAUCUACGAAUUCCUCAGGAUGAAACAAUUUGGAGAAGUCUAGAUCGGAAGAGCACACGU
B17: target 2 MT 5'PFS AGC 3'PFS AAG (mixed)
RNA 1: CACCCGUGCAAAAUUGCAGGGGUCUAAAACCUUCUCCAAAUUGUUUCAUCCU
RNA 2: GGGAAUGGAUCCACAUCUACGAAUUCAGCAGGAUGAAACAAUUUGGAGAAGAAGAGAUCGGAAGAGCACACGU
B18: target 2 MT 5'PFS AGU 3'PFS CGC (mixed)
RNA 1: CACCCGUGCAAAAUUGCAGGGGUCUAAAACCUUCUCCAAAUUGUUUCAUCCU
RNA 2: GGGAAUGGAUCCACAUCUACGAAUUCAGUAGGAUGAAACAAUUUGGAGAAGCGCAGAUCGGAAGAGCACACGU
B19: target 2 MT 5'PFS GUU 3'PFS AAG (mixed)
RNA 1: CACCCGUGCAAAAUUGCAGGGGUCUAAAACCUUCUCCAAAUUGUUUCAUCCU
RNA 2: GGGAAUGGAUCCACAUCUACGAAUUCGUUAGGAUGAAACAAUUUGGAGAAGAAGAGAUCGGAAGAGCACACGU
B20: target 2 MT 5'PFS GUU 3'PFS AAU (mixed)
RNA 1: CACCCGUGCAAAAUUGCAGGGGUCUAAAACCUUCUCCAAAUUGUUUCAUCCU
RNA 2: GGGAAUGGAUCCACAUCUACGAAUUCGUUAGGAUGAAACAAUUUGGAGAAGAAUAGAUCGGAAGAGCACACGU
B21: target 2 MT 5'PFS CUC 3'PFS UCC (mixed)
RNA 1: CACCCGUGCAAAAUUGCAGGGGUCUAAAACCUUCUCCAAAUUGUUUCAUCCU
RNA 2: GGGAAUGGAUCCACAUCUACGAAUUCCUCAGGAUGAAACAAUUUGGAGAAGUCCAGAUCGGAAGAGCACACGU
B22: target 2 MT 5'PFS AGC 3'PFS AAA (mixed)
RNA 1: CACCCGUGCAAAAUUGCAGGGGUCUAAAACCUUCUCCAAAUUGUUUCAUCCU
RNA 2: GGGAAUGGAUCCACAUCUACGAAUUCAGCAGGAUGAAACAAUUUGGAGAAGAAAAGAUCGGAAGAGCACACGU
B23: target 2 MT 5'PFS AAU 3'PFS AGA (mixed)
RNA 1: CACCCGUGCAAAAUUGCAGGGGUCUAAAACCUUCUCCAAAUUGUUUCAUCCU
RNA 2: GGGAAUGGAUCCACAUCUACGAAUUCAAUAGGAUGAAACAAUUUGGAGAAGAGAAGAUCGGAAGAGCACACGU
B24: target 2 MT 5'PFS AGC 3'PFS AAU (mixed)
RNA 1: CACCCGUGCAAAAUUGCAGGGGUCUAAAACCUUCUCCAAAUUGUUUCAUCCU
RNA 2: GGGAAUGGAUCCACAUCUACGAAUUCAGCAGGAUGAAACAAUUUGGAGAAGAAUAGAUCGGAAGAGCACACGU
B25: target 2 MT 5'PFS AGA 3'PFS CGG (mixed)
RNA 1: CACCCGUGCAAAAUUGCAGGGGUCUAAAACCUUCUCCAAAUUGUUUCAUCCU
RNA 2: GGGAAUGGAUCCACAUCUACGAAUUCAGAAGGAUGAAACAAUUUGGAGAAGCGGAGAUCGGAAGAGCACACGU
B26: target 2 MT 5'PFS AGC 3'PFS UGC (mixed)
RNA 1: CACCCGUGCAAAAUUGCAGGGGUCUAAAACCUUCUCCAAAUUGUUUCAUCCU
RNA 2: GGGAAUGGAUCCACAUCUACGAAUUCAGCAGGAUGAAACAAUUUGGAGAAGUGCAGAUCGGAAGAGCACACGU
B27: target 2 MT 5'PFS AGC 3'PFS UGU (mixed)
RNA 1: CACCCGUGCAAAAUUGCAGGGGUCUAAAACCUUCUCCAAAUUGUUUCAUCCU
RNA 2: GGGAAUGGAUCCACAUCUACGAAUUCAGCAGGAUGAAACAAUUUGGAGAAGUGUAGAUCGGAAGAGCACACGU
B28: target 2 MT 5'PFS UCU 3'PFS UGC (mixed)
RNA 1: CACCCGUGCAAAAUUGCAGGGGUCUAAAACCUUCUCCAAAUUGUUUCAUCCU
RNA 2: GGGAAUGGAUCCACAUCUACGAAUUCUCUAGGAUGAAACAAUUUGGAGAAGUGCAGAUCGGAAGAGCACACGU

Biological target: T1, EsCas13d, nuclease-dead
Assay: crRNA (strand 1, pre-loaded); Mg2+; 40 mM Tris-HCl pH 7.5, 150 mM NaCl, 6 mM MgCl2, 1 mM DTT, 0.1% Tween-20, 0.2 mg/ml BSA; 25 C; 10 min per concentration, then washed
Conditions: tags: His6-TwinStrep-SUMO cleaved; N-terminal SNAP kept (SNAP-Surface 488); label: 3' end held by stalled T7 RNA polymerase

Point of comparison: B22, Kd 13 ± 4 nM. Against it:
- B1 — 2.8-fold higher, 35.8 ± 3.1 nM
- B2 — 1.8-fold higher, 23 ± 1.9 nM
- B3 — within error, 17 ± 1.3 nM
- B4 — 1.9-fold lower, 7 ± 1.5 nM
- B5 — 5.4-fold lower, 2.4 ± 1.1 nM
- B6 — 3.9-fold lower, 3.3 ± 0.5 nM
- B7 — within error, 14.5 ± 3.5 nM
- B8 — 2.1-fold lower, 6.3 ± 0.5 nM
- B9 — within error, 13.9 ± 2.3 nM
- B10 — 2.4-fold lower, 5.5 ± 0.8 nM
- B11 — within error, 14 ± 7 nM
- B12 — the same, 13 ± 4 nM
- B13 — 2.4-fold lower, 5.5 ± 1.8 nM
- B14 — within error, 11.9 ± 1.3 nM
- B15 — within error, 11 ± 5 nM
- B16 — 2.6-fold lower, 5 ± 0.6 nM
- B17 — within error, 9.2 ± 2 nM
- B18 — within error, 14.6 ± 1.9 nM
- B19 — within error, 9.3 ± 0.8 nM
- B20 — 1.7-fold lower, 7.5 ± 0.6 nM
- B21 — 2.5-fold lower, 5.3 ± 0.9 nM
- B23 — 3.9-fold lower, 3.3 ± 0.5 nM
- B24 — 1.8-fold lower, 7.1 ± 1.4 nM
- B25 — 2.5-fold lower, 5.2 ± 0.6 nM
- B26 — within error, 8.2 ± 1.4 nM
- B27 — within error, 12.7 ± 1.8 nM
- B28 — within error, 11.7 ± 2.1 nM
